According to patent US20250339466A1 (published 2025):

How the values were obtained:
[1] = biological target: Bio-huBCMA-His (biotinylated human BCMA with His tag) (human) (UniProt Q02223); test: ELISA, periplasmic extract of scFv on biotinylated human BCMA-His
[2] = biological target: T1, human BCMA on BCMA overexpressing CHO cells (human, UniProt Q02223 1-184); test: flow cytometry, periplasmic extract of scFv on cells with human BCMA
T1 construct: also called hBCMA CHO; Hu BCMA (FACS)
T1 chain: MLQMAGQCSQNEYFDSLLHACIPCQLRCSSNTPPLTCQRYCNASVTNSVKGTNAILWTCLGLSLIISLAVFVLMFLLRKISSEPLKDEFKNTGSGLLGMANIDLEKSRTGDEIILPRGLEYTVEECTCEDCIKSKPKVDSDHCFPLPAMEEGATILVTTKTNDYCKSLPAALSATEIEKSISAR

[3] = biological target: T2, Bio-cyBCMA-His (biotinylated cynomolgus BCMA with His tag) (cynomolgus, UniProt A0A2K5UD97 1-53, Biotinylated (site not stated); C- or N-terminal His tag not carried in the letters); test: ELISA, periplasmic extract of scFv on biotinylated cynomolgus BCMA-His
T2 construct: not shown: biotin label
T2 sequence (A0A2K5UD97 entry or part of it limits assumed, form in doubt): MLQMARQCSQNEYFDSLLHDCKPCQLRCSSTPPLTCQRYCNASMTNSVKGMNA

Row | Binder | PE ELISA Bio-huBCMA-His [1] | PE FACS % Binding Hu BCMA [2] [%] | PE Elisa Bio-cyBCMA-His [3]
1 | anti-BCMA scFv clone from phage display, periplasmic extract (Table 3, first row; VH printed there as SEQ ID NO: 26, VL as SEQ ID NO: 23) (scFv, V domains shown, part only, linker not stated) VH: QITLRESGGDVVQPGRSLRLSCAASGFTFSSYAIHWVRQAPGKGLEWVAVTWHDGSNKYYAESVMGRFTISRDNSKNTLYLHMNSLRAEDTGVYYCARAKFGEPQYFQHWGQGTLVTVSS VL: DIVMTQSPSFLSASVGDRVTITCRASQGISSYLAWYQQKPGKAPKLLIYAASTLQSGVPSRFSGSGSGTEFTLTISSLQPEDFATYYCQQLNSYPWTFGQGTKVDIK | 1.1 | – | –
2 | anti-BCMA scFv clone from phage display, periplasmic extract (Table 3, second row; VH printed there as SEQ ID NO: 26, VL as SEQ ID NO: 25) (scFv, V domains shown, part only, linker not stated) VH: QITLRESGGDVVQPGRSLRLSCAASGFTFSSYAIHWVRQAPGKGLEWVAVTWHDGSNKYYAESVMGRFTISRDNSKNTLYLHMNSLRAEDTGVYYCARAKFGEPQYFQHWGQGTLVTVSS VL: DIVMTQSPSFLSASVGDRVTITCRASQGINNYLAWYQQKPGIAPKLLIYAASTLQSGVPSRFGGSGSGTEFTLTISSLQPEDFATYYCQQLKSYPFTFGPGTKVEIK | 1.11 | – | –
3 | anti-BCMA scFv clone from phage display, periplasmic extract (Table 3, third row; VH printed there as SEQ ID NO: 10, VL as SEQ ID NO: 27) (scFv, V domains shown, part only, linker not stated) VH: EVQLVESGGDVVQPGRSLRLSCAASGFTFSSYAIHWVRQAPGKGLEWVAVTWHDGSNKYYAESVMGRFTISRDNSKNTLYLHMNSLRAEDTGVYYCARAKFGEPQYFQHWGQGTTVTVSS VL: DIVMTQSPSFLSASVGDRVTITCRASQGISSYLAWYQQKPGKAPKLLIYAASTLQSGVPSRFSGSGSGTEFTLTISSLQPEDFATYYCQQLNSYPFTFGPGTKVDIK | 0.516 | – | –
4 | anti-BCMA scFv clone from phage display, periplasmic extract (Table 3, third row; VH printed there as SEQ ID NO: 10, VL as SEQ ID NO: 27) (scFv) EVQLVESGGDVVQPGRSLRLSCAASGFTFSSYAIHWVRQAPGKGLEWVAVTWHDGSNKYYAESVMGRFTISRDNSKNTLYLHMNSLRAEDTGVYYCARAKFGEPQYFQHWGQGTTVTVSSDIVMTQSPSFLSASVGDRVTITCRASQGISSYLAWYQQKPGKAPKLLIYAASTLQSGVPSRFSGSGSGTEFTLTISSLQPEDFATYYCQQLNSYPFTFGPGTKVDIK | – | 47.2 | 0.126
5 | anti-BCMA scFv clone from phage display, periplasmic extract (Table 3, first row; VH printed there as SEQ ID NO: 26, VL as SEQ ID NO: 23) (scFv) QITLRESGGDVVQPGRSLRLSCAASGFTFSSYAIHWVRQAPGKGLEWVAVTWHDGSNKYYAESVMGRFTISRDNSKNTLYLHMNSLRAEDTGVYYCARAKFGEPQYFQHWGQGTLVTVSSDIVMTQSPSFLSASVGDRVTITCRASQGISSYLAWYQQKPGKAPKLLIYAASTLQSGVPSRFSGSGSGTEFTLTISSLQPEDFATYYCQQLNSYPWTFGQGTKVDIK | – | 89 | 0.147
6 | anti-BCMA scFv clone from phage display, periplasmic extract (Table 3, second row; VH printed there as SEQ ID NO: 26, VL as SEQ ID NO: 25) (scFv) QITLRESGGDVVQPGRSLRLSCAASGFTFSSYAIHWVRQAPGKGLEWVAVTWHDGSNKYYAESVMGRFTISRDNSKNTLYLHMNSLRAEDTGVYYCARAKFGEPQYFQHWGQGTLVTVSSDIVMTQSPSFLSASVGDRVTITCRASQGINNYLAWYQQKPGIAPKLLIYAASTLQSGVPSRFGGSGSGTEFTLTISSLQPEDFATYYCQQLKSYPFTFGPGTKVEIK | – | 54.6 | 0.122
